Read-outs that look alike come from different tables or passages of the source.
How the values were obtained:
PSMA [1] = biological target: T1, PSMA (Homo sapiens, UniProt Q04609); assay: Competitive binding experiments (IC50) using PSMA-expressing LNCaP cells and ([125I]I-BA)EuK as standard radioligand
T1 construct: using PSMA-expressing LNCaP cells and ([^125I]I-BA)EuK as standard radioligand; endogenous in cells; host or cells: LNCaP cells
Experimental: Competitive binding experiments (IC50) were carried out in accordance with an established protocol ([…]. et al., Eur. J. Nuc. Mol. Med. Imaging Res., 2014, 4, 63) using PSMA-expressing LNCaP cells and ([^125I]I-BA)EuK as standard radioligand.

[2] = system: PC3-Pip xenografts in NSG mice; assay: In vivo and ex vivo fluorescence imaging of PC3-Pip xenografts in NSG mice; settings: for detectable fluorescence signal: 6 h p.i., 0.1 nmol ligand
Experimental: FIG. 3: In vivo (A) and ex vivo (B) fluorescence imaging of PC3-Pip xenografts in NSG mice using PSMA-HSG (upper two rows), the reference Ac-mas3-Cy5(SO3)—EuK (middle two rows) and Ac-mas3-(SO3)Cy5(SO3)—EuK (lower two rows). Conditions were 2 h p.i. using a peptide dose of 1 nmol/mouse and 6 h p.i. using a peptide dose of 0.1 nmol/mouse, respectively (n=1 per condition). In vivo and ex vivo fluorescence imaging of intact tumors was performed using a clinical-grade fluorescence KARL STORZ Endoscope; fluorescence confocal imaging of 2 mm tumor slices (right) was performed using a Leica SP8 WLL microscope.
In vivo fluorescence imaging of PC3-Pip xenografts in NSG mice (2 h p.i. at a ligand dose of 1 nmol and 6 h p.i. at a ligand dose of 0.1 nmol, respectively; n=1 per compound and condition) was performed using a clinical-grade fluorescence laparoscopy set-up (KARL STORZ Endoskope GMBh & Co. KG). Cy5-based tumor imaging was performed using D-light P system and a prototype modified IMAGE 1 S light source with integrated Cy5 filter (both KARL STORZ Endoskope GMBh & Co. KG). Images were recorded using integrated KARL STORZ software and image processing was performed using in-house developed MATLAB software that provided a signal intensity-based representation of the signal-to-background ratio (SBR; Azargoshasb S. et al., Mol. Imaging Biol., 2022, https://doi.org/10.1007/s11307-022-01736-y; de Barros H. A. et al., Eur. Urol., 2022, 82, 97-105).
Fluorescence Confocal Imaging of Excised Tumor Specimens After in vivo imaging tumor specimens (N=1 per tracer) were excised and cut into 2 mm slices. Prior to imaging, slices were placed on a 35-mm culture dish containing a glass insert (MatTek Co.). Fluorescence confocal imaging was then performed using a Leica SP8 WLL microscope (Leica Microsystems). For assessment of tracer uptake Cy5 settings were used; λex=633 nm, λem=650-700 nm. Images were processed using accompanying LASX software (Leica Application Software Suite 4.8).

plasma proteins = assay: Plasma protein binding; assay type: in vitro ADME
Experimental: (§1) Quantum yield, molar extinction coefficient and serum protein binding experiments were performed according to previously published procedures (Hensbergen A. W. et al., Dyes and Pigments, 2018, 152, 19-28).

[3] = Photophysical characterization (molar extinction coefficient, quantum yield, brightness) in human serum albumin solution; assay type: physicochemical; settings: for Brightness (HSA): multiplication of molar extinction coefficient and quantum yield
Experimental: as §1
Table 1 summarizes the photophysical properties of [^99mTc]PSMA-HSG, [^99mTc]mas3-Cy5(SO3)—EuK and [^99mTc]mas3-(SO3)Cy5(SO3)—EuK and of the different sulfonated Cy5-dyes used for their preparation. […] Because of this latter effect we analyzed the brightness (as multiplication of the molar extinction coefficient and the quantum yield) in humans serum albumin for all three hybrid PSMA agents included in this study (see Table 1). While we indeed see that increasing of the number of sulfonates on the cyanine dye has a positive effect on the brightness all remain within the same order of magnitude.
Because of this latter effect, we analyzed the brightness (as multiplication of the molar extinction coefficient and the quantum yield) in human serum albumin solution for all three hybrid PSMA agents included in this study (see Table 1). While we indeed see that increasing of the number of sulfonates on the cyanine dye has a positive effect on the brightness, all remain within the same order of magnitude.

Plasma protein binding = assay type: in vitro ADME; settings: plasma
Experimental: as §1

PSMA [4] = biological target: T1, PSMA; settings: LNCaP cells; reference compounds, assayed under identical conditions (literature cited in table title); # = free mas3-chelator; cited from earlier work
[5] = system: LNCaP xenograft bearing male NSG mice; assay: Small animal SPECT/CT blocking study with 2-PMPA co-injection; assay type: in vivo; settings: 2-4 h p.i.; 1 nmol; co-injection of 1 μmol 2-PMPA
Experimental: FIG. 1: Small animal SPECT/CT study in LNCaP xenograft bearing male NSG mice at 2-4 h p.i. […] White arrows indicate the position of the LNCaP xenograft. SPECT/CT images were acquired using an Albira Si PET/SPECT/CT (Bruker Biospin Corporation, Woodbridge, CT, USA) instrument. […] For reconstruction, an ordered subset expectation-maximization algorithm (OSEM) with two iterations was used, and scatter correction was applied. For CT, the following parameters were used: 400 μA intensity and 35 kV voltage, 600 projections. Images were reconstructed using a filtered back-projection (FBP) algorithm with de-ringing correction. Fused representative SPECT/CT images were acquired using the PMOD software (PMOD technologies, version 3.709, Zurich, Switzerland).

[6] = Lipophilicity, modified shake-flask method; assay type: physicochemical
Experimental: The lipophilicity of [^99mTc]PSMA-HSG, [^99mTc]EuK(SO3)Cy5-mas3 and [^99mTc]EuK(SO3)Cy5(SO3)-mas3 was determined via a modified shake-flask method as described ([…]. et al., Eur. J. Nuc. Mol. Med. Imaging Res., 2014, 4, 63).

[7] = Biodistribution in LNCaP xenograft bearing NSG mice; assay type: in vivo; settings: NSG, mouse, in vivo, iv, 0.1 nmol/animal, total radioactivity, Biodistribution: LNCaP tumor
Experimental: The biodistribution of [^99mTc]PSMA-HSG, [^99mTc]EuK(SO3)Cy5-mas3 and [^99mTc]EuK(SO3)Cy5(SO3)-mas3 was investigated in LNCaP xenograft bearing NSG mice. […] (0.1 nmol-cohort), respectively.
To assess the influence of the different ligand designs of [^99mTc]PSMA-HSG and [^99mTc]mas3-(SO3)Cy5(SO3)—EuK on in vivo PSMA-targeting and general pharmacokinetics, their in vivo biodistribution was investigated in LNCaP xenograft bearing NSG mice in two different experimental settings: • A) at 2 h p.i. using a ligand dose of 1 nmol/animal. These conditions were chosen to allow comparability of the data from this study (Table 3) with previous results in a different tumor model (Hensbergen, A. W. et al., J. Nucl. Med., 2020, 61, 234-241). Here, [^99mTc]mas3-Cy5(SO3)—EuK was additionally included as an internal reference to establish the “missing link” between studies. • B) at 6 h p.i. using a ligand dose of 0.1 nmol/animal (Table 4). The latter settings were adapted to a timeline and dosing with more similarity to the clinical situation (surgery at a later time point, microdosing principle). Of note, however, a ligand amount of 0.1 nmol/mouse (extrapolation: 280 nmol/70 kg patient) still exceeds the potentially applicable clinical dose (48 nmol/70 kg patient for a compound with a molecular weight of −2100 g/mol). Nevertheless, it represents a dose level at which significant competition effects between unlabeled precursor and radioligand for PSMA binding sites in tumor tissue are not probable (Eder A. C. et al., J. Nucl. Med., 2021, 62, 1461-1467; Kalidindi T. M. et al., Eur. J. Nucl. Med. Mol. Imaging, 2021, 48, 2642-2651).

[8] = tendency to associate with plasma proteins

T1 sequence (Q04609 whole entry): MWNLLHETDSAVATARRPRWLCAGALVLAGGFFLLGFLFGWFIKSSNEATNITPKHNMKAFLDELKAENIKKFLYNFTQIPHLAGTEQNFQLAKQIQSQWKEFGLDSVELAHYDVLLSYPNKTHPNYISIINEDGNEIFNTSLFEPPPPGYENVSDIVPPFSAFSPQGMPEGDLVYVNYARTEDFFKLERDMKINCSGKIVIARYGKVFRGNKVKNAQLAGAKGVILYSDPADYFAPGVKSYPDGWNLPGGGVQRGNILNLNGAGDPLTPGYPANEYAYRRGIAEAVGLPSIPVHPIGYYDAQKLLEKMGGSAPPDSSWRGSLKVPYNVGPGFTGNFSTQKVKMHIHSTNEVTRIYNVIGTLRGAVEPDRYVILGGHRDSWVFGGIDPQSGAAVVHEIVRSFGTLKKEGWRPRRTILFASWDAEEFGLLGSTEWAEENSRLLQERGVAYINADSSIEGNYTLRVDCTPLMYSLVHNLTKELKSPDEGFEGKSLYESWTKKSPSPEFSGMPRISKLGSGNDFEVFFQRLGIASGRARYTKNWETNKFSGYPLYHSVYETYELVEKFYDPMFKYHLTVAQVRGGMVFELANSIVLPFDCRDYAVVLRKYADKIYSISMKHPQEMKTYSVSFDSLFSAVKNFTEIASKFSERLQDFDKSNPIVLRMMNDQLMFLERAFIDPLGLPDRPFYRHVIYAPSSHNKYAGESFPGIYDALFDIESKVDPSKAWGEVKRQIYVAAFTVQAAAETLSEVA

Row | Compound | reduction in affinity compared to the mono-sulfonated analog Ac-mas3-Cy5(SO3)-EuK (PSMA [1]) | IC50 (PSMA [1]; LNCaP cells, free mas3-chelator, novel compounds) [nM] | fluorescence signal in the xenografts ([2]; 2 h p.i., ligand dose 1 nmol, in vivo and ex vivo) | detectable fluorescence signal [2] | tendency to associate with plasma proteins (plasma proteins) [%] | Quantum yield (HSA) [3] [%] | Brightness (HSA) [3] [L/mol/cm] | Molar extinction coefficient free dye (HSA) [3] [L/mol/cm] | brightness compared to PSMA-HSG ([3]; text b242) | fraction unbound (Plasma protein binding; [8]) | IC50 (PSMA [4]) [nM] | specificity of tracer uptake in tumor and PSMA-positive tissues [5] | logP [6] | tissue uptake at 6 h [7] [%ID/g] | fraction unbound (Plasma protein binding; Plasma Protein Binding (%))
1 | CC(=O)SCC(=O)N[C@H](CO)C(=O)N[C@H](CO)C(=O)N[C@H](CO)C(=O)NCCCCCC(=O)NCCCCN1/C(=C/C=C/C=C/C2=[N+](CCCCCC(=O)NCCCC[C@H](NC(=O)N[C@@H](CCC(=O)O)C(=O)O)C(=O)O)c3ccc(S(=O)(=O)O)cc3C2(C)C)C(C)(C)c2cc(S(=O)(=O)[O-])ccc21 [Ac-mas3-(SO3)Cy5(SO3)-EuK] | almost eight-fold reduction | 131 ± 29 | weakest signal | virtually not detectable | 77.9 | 16 | 38900 | 243000 | fivefold lower brightness |  |  |  |  |  | 
2 | CC(=O)SCC(=O)N[C@H](CO)C(=O)N[C@H](CO)C(=O)N[C@H](CO)C(=O)NCCCCC(=O)NCCCCN1\C(=C/C=C/C=C/C2=[N+](CCCCCC(=O)NCCCC[C@H](NC(=O)N[C@@H](CCC(=O)O)C(=O)O)C(=O)O)c3ccc(S(=O)(=O)[O-])cc3C2(C)C)C(C)(C)c2ccccc21 [Ac-mas3-Cy5(SO3)-EuK] |  |  |  | weak |  | 21 | 33800 | 161000 |  | 0.028 | 17.8 ± 2.9 |  |  |  | 
3 | C[N+]1=C(/C=C/C=C/C=C2/N(CCCCCC(=O)NCCCC[C@@H](NC(=O)[C@@H](CO)NC(=O)[C@@H](CO)NC(=O)[C@@H](CO)NC(=O)CS)C(=O)N[C@H](Cc3ccc(O)cc3)C(=O)N[C@H](Cc3ccc4ccccc4c3)C(=O)N[C@H](CCCCNC(=O)CCCCCCC(=O)NCCCC[C@H](NC(=O)N[C@@H](CCC(=O)O)C(=O)O)C(=O)O)C(=O)O)c3ccc(S(=O)(=O)O)cc3C2(C)C)C(C)(C)c2cc(S(=O)(=O)[O-])ccc21 [[^99mTc]PSMA-HSG, metal not drawn] |  |  |  |  |  |  |  |  |  | 0.006 |  | PSMA-specific | -2.94 | 17.1 ± 2.9 | 0.007
